Experimental findings from patent US20150182581A1 are described below.

Holding throughout (test): cell-based or functional assay
Experiment [1] has as its target HIV-1 Nef (full length Nef gene, accession no. GQ184335) cloned in VP16pCDNA+pACT mammalian two-hybrid vector (herpes simplex virus type 1; HIV-1).
Experiment [2] concerns the target ASK1(h) cloned in pEYFP-N1 (human) (UniProt Q99683).
For experiment [3], the target named is ASK1(g) cloned in pEYFP-N1 (human) (UniProt Q99683).
Experiment [4] concerns the target ASK1i cloned in pEYFP-N1 (human) (UniProt Q99683).

ASK1(g) cloned in pEYFP-N1 (human), sequence (Q99683 1-1050): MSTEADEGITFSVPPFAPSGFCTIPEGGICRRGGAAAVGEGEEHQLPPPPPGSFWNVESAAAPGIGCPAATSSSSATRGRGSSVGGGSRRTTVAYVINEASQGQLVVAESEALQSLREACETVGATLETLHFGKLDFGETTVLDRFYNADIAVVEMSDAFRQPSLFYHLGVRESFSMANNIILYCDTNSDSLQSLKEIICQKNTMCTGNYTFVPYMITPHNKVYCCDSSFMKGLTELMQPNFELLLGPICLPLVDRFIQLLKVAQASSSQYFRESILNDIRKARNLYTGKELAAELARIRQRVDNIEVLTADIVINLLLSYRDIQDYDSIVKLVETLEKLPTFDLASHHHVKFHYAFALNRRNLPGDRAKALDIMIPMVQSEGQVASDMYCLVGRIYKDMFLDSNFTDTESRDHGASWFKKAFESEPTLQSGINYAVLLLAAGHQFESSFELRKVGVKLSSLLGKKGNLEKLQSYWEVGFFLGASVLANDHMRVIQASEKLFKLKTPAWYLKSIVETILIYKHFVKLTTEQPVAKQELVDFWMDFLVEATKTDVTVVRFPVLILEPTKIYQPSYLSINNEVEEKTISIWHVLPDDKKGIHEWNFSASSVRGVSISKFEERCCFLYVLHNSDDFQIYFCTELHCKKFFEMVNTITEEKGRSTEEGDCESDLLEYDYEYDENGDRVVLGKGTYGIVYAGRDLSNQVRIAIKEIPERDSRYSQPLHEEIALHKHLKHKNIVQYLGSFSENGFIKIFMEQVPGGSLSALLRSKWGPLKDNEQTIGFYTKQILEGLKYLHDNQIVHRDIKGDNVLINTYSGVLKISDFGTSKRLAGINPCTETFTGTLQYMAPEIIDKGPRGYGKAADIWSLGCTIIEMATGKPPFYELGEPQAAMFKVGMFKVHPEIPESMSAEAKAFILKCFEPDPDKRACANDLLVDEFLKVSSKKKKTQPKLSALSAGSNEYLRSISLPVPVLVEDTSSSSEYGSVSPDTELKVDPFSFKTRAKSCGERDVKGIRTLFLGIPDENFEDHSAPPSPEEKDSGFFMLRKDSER
ASK1i cloned in pEYFP-N1 (human), sequence (Q99683 1-904): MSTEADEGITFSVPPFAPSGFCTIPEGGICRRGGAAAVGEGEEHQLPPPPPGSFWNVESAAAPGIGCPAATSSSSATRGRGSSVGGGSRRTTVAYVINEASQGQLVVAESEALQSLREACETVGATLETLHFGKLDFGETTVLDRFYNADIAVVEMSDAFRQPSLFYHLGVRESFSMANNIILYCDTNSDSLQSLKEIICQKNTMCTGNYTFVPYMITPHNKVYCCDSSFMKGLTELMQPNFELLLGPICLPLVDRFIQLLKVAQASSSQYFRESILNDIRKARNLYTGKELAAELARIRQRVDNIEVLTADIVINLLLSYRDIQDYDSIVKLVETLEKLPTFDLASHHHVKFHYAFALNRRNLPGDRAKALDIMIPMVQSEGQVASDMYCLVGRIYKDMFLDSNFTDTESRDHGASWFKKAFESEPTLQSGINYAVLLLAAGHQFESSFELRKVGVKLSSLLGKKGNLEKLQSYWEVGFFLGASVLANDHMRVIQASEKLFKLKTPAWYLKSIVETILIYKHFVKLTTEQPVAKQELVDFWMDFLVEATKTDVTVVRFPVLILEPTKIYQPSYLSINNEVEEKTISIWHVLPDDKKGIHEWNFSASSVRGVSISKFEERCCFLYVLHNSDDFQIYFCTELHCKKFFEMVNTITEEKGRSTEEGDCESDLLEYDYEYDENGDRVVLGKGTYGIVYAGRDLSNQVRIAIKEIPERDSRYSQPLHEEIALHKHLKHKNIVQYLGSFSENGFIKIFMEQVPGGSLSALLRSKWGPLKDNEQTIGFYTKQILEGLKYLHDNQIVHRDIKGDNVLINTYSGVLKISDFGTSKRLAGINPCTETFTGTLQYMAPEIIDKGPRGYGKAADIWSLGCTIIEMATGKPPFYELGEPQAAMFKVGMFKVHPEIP
ASK1(h) cloned in pEYFP-N1 (human), sequence (Q99683 320-1050): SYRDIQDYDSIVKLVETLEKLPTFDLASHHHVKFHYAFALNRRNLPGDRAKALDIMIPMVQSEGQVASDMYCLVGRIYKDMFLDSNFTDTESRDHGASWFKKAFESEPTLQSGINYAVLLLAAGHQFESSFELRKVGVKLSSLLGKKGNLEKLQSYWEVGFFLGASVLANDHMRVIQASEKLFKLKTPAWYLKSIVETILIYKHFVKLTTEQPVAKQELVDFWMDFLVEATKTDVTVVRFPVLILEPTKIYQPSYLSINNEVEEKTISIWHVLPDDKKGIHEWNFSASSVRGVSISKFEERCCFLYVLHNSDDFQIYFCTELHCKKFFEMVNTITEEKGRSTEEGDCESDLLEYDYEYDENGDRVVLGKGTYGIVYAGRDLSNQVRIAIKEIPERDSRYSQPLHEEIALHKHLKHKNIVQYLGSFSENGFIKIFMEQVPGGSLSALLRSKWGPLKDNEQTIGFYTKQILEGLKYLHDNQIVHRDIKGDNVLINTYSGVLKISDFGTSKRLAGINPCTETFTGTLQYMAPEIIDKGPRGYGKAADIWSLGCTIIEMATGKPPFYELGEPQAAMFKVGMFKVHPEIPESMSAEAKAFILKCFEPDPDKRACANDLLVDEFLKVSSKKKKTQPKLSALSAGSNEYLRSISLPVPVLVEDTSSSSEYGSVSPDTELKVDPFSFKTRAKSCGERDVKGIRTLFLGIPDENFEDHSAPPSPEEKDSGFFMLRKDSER

As for “ASK1b (959-2010) cloned in pBIND (from UniProt P04386 1-147; Q99683 320-670)”, the luciferase activity compared to negative control pACT-pBIND in experiment [1] was found to be 1.1 fold.
Regarding “ASK1h (Contain ASK1d and upstream sequence) cloned in pBIND (from UniProt P04386 1-147; Q99683 320-1050)”, the luciferase activity compared to negative control in experiment [1] was determined as 8.41 fold.
“ASK1d (2581-3152) cloned in pBIND (from UniProt P04386 1-147; Q99683 861-1050)” displayed a luciferase activity compared to negative control pACT-pBIND in experiment [1] of 2.89 fold.
In the case of “ASK1a (1-1035) cloned in pBIND (from UniProt P04386 1-147; Q99683 1-345)”, in experiment [1], the luciferase activity compared to negative control pACT-pBIND was 2.28 fold.
For “ASK1g (contain both ASK1a, ASK1d and in between sequence) cloned in pBIND (from UniProt P04386 1-147; Q99683 1-1050)”, the luciferase activity compared to negative control pACT-pBIND in experiment [1] was determined as 154 fold.
In the case of “HIV-1 Nef (accession no. GQ184335) cloned in pEYFP-N1”, in experiment [2], the annexin V stained cells after co-transfection stood at 38% and the inhibition of apoptosis was 10%. In experiment [3], this substance came in with a % of Annexin V cells means apoptotic cells of 22.1%; an annexin V stained cells after co-transfection of 20%; an inhibition of apoptosis of 52%; an inhibition of apoptosis (annexin V and PI staining) of 50%. The phosphorylation of JNK kinase (western blot, densitometry) in experiment [3] worked out at 2 fold. In experiment [4], this substance returned an annexin V stained cells after co-transfection of 26% and an inhibition of apoptosis of 42%.
Regarding “ASK1i (contain ASK1a and downstream sequence) cloned in pBIND (from UniProt P04386 1-147; Q99683 1-904)”, the luciferase activity compared to negative control in experiment [1] is 2.72 fold.
Consider “ASK1j (contain in between ASK1a and ASK1d fragment) cloned in pBIND (from UniProt P04386 1-147; Q99683 320-904)”, for which the luciferase activity compared to negative control in experiment [1] came out at 0.5 fold.
